This series deals with the molecule itself. Nature of the series: cross-linking.

B1: wild-type human Tom40A lacking amino acid residues 1 to 82 (hTom40AΔ1-82) (domain or fragment, UniProt O96008 83-361, looked up)
chain: FEECHRKCKELFPIQMEGVKLTVNKGLSNHFQVNHTVALSTIGESNYHFGVTYVGTKQLSPTEAFPVLVGDMDNSGSLNAQVIHQLGPGLRSKMAIQTQQSKFVNWQVDGEYRGSDFTAAVTLGNPDVLVGSGILVAHYLQSITPCLALGGELVYHRRPGEEGTVMSLAGKYTLNNWLATVTLGQAGMHATYYHKASDQLQVGVEFEASTRMQDTSVSFGYQLDLPKANLLFKGSVDSNWIVGATLEKKLPPLPLTLALGAFLNHRKNKFQCGFGLTIG
B1: the “stoichiometry N” value turned out to be 2.

As usually defined, the stoichiometry N is a count of units in the complex or per binding partner.

For the origin of these results see PMC3782296 (Journal of molecular biology, 2011).
